The labels stand for the following.
B1: FBXO34 (parent)
chain: ASSVESTLPVLEASSWKKQVSHDF

Consider 94 variants from the supplement of paper PMC10567573.
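Further: lentivirally expressed fusions sorted by FACS into six bins by GFP to DsRed ratio, PSI derived from sequencing read proportions per bin multiplied by bin number.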

Variants of B1 are the subject of the data set. Kind of data set: protein stability index of a GFP-peptide fusion (GPS, HEK-293T) (PSI 1-6); higher = more stable. The settings on record: c terminus: a fixed tail appended.
For the variant ASSVESTLPVLEAVSWKKQVSHDF [S14V], the protein stability index worked out at 2.35.
Then ASSVESTLPVLEARSWKKQVSHDF [S14R], with 2.39.
For the variant ASSVESTLPVLEAQSWKKQVSHDF [S14Q], the protein stability index was 2.4.
ASSVESTLPVLEANSWKKQVSHDF [S14N]: the protein stability index worked out at 3.02.
Then ASSVESTLPVLEAISWKKQVSHDF [S14I], with 3.74.
The figure for ASSVESTLPVLEACSWKKQVSHDF [S14C] is 2.95; for ASSVESTLPVLEADSWKKQVSHDF [S14D] it is 1.67.
The figure for ASSVESTLPVLEATSWKKQVSHDF [S14T] is 2.33; for ASSVESTLPVLEAHSWKKQVSHDF [S14H] it is 2.4.
With ASSVESTLPVLEAGSWKKQVSHDF [S14G], the protein stability index came to 2.8.
The figure for ASSVESTLPVLEAWSWKKQVSHDF [S14W] is 1.12; for ASSVESTLPVLEAFSWKKQVSHDF [S14F] it is 2.49.
Then ASSVESTLPVLEAPSWKKQVSHDF [S14P], with 3.07; and ASSVESTLPVLEAESWKKQVSHDF [S14E], with 2.75; and ASSVESTLPVLEALSWKKQVSHDF [S14L], with 2.14.
Then ASSVESTLPVLEAMSWKKQVSHDF [S14M], with 1.53; and ASSVESTLPVLEAYSWKKQVSHDF [S14Y], with 2.3; and ASSVESTLPVLEASSWCKQVSHDF [K17C], with 3.17.
Turning to ASSVESTLPVLEASSWDKQVSHDF [K17D], the protein stability index was determined as 4.16.
ASSVESTLPVLEASSWAKQVSHDF [K17A]: the protein stability index was 1.83.
The figure for ASSVESCLPVLEASSWKKQVSHDF [T7C] is 3.31.
Then ASSVESFLPVLEASSWKKQVSHDF [T7F], with 2.92; and ASSVESNLPVLEASSWKKQVSHDF [T7N], with 3.55.
The figure for ASSVESHLPVLEASSWKKQVSHDF [T7H] is 3.21; for ASSVESELPVLEASSWKKQVSHDF [T7E] it is 2.88.
Take ASSVESSLPVLEASSWKKQVSHDF [T7S]: the protein stability index was found to be 3.94.
Then ASSVESMLPVLEASSWKKQVSHDF [T7M], with 2.48.
Then ASSVESPLPVLEASSWKKQVSHDF [T7P], with 2.31; and ASSVESALPVLEASSWKKQVSHDF [T7A], with 2.9.
On to ASSVESDLPVLEASSWKKQVSHDF [T7D], for which the protein stability index amounted to 3.63.
The figure for ASSVESYLPVLEASSWKKQVSHDF [T7Y] is 3.37; for ASSVESKLPVLEASSWKKQVSHDF [T7K] it is 2.82.
With ASSVESVLPVLEASSWKKQVSHDF [T7V], the protein stability index turned out to be 2.85.
Consider ASSVESLLPVLEASSWKKQVSHDF [T7L], for which the protein stability index is 2.42.
In the case of ASSVESQLPVLEASSWKKQVSHDF [T7Q], the protein stability index was 4.86.
Turning to ASSVESRLPVLEASSWKKQVSHDF [T7R], the protein stability index was determined as 2.7.
Then ASSVESTLPVLCASSWKKQVSHDF [E12C], with 2.54; and ASSVESTLPVLGASSWKKQVSHDF [E12G], with 2.49.
With ASSVESTLPVLDASSWKKQVSHDF [E12D], the protein stability index is 2.83.
Then ASSVESTLPVLNASSWKKQVSHDF [E12N], with 3.1.
In the case of ASSVESTLPVLYASSWKKQVSHDF [E12Y], the protein stability index is 2.22.
For the variant ASSVESTLPVLLASSWKKQVSHDF [E12L], the protein stability index came out at 2.24.
For ASSVESTLPVLHASSWKKQVSHDF [E12H], the protein stability index worked out at 2.82.
The figure for ASSVESTLPVLVASSWKKQVSHDF [E12V] is 2.73; for ASSVESTLPVLSASSWKKQVSHDF [E12S] it is 2.32; for ASSVESTLPVLPASSWKKQVSHDF [E12P] it is 3.46.
The figure for ASSVESTLPVLKASSWKKQVSHDF [E12K] is 2.36.
Then ASSVESTLPVLAASSWKKQVSHDF [E12A], with 3.02.
For the variant ASSVESTLPVLIASSWKKQVSHDF [E12I], the protein stability index came to 2.12.
The figure for ASSVESTLPVLTASSWKKQVSHDF [E12T] is 2.86; for ASSVESTLPVLFASSWKKQVSHDF [E12F] it is 2.25.
The figure for ASSVESTLPVQEASSWKKQVSHDF [L11Q] is 2.96.
In the case of ASSVESTLPVWEASSWKKQVSHDF [L11W], the protein stability index was determined as 2.54.
Then ASSVESTLPVPEASSWKKQVSHDF [L11P], with 2.78; and ASSVESTLPVNEASSWKKQVSHDF [L11N], with 2.85; and ASSVESTLPVGEASSWKKQVSHDF [L11G], with 2.01.
The figure for ASSVESTLPVAEASSWKKQVSHDF [L11A] is 3.52; for ASSVESTLPVYEASSWKKQVSHDF [L11Y] it is 2.69; for ASSVESTLPVEEASSWKKQVSHDF [L11E] it is 3.02.
Regarding ASSVESTLPVIEASSWKKQVSHDF [L11I], the protein stability index amounted to 2.91.
The figure for ASSVESTLPVCEASSWKKQVSHDF [L11C] is 2.85.
Then ASSVESTLPVTEASSWKKQVSHDF [L11T], with 2.87; and ASSVESTLPVFEASSWKKQVSHDF [L11F], with 2.88.
Then ASSVESTLPVREASSWKKQVSHDF [L11R], with 3.05.
For ASSVESTLPVMEASSWKKQVSHDF [L11M], the protein stability index was 2.33.
As for ASSVESTLPVVEASSWKKQVSHDF [L11V], the protein stability index turned out to be 3.03.
The figure for ASSVESTLPVKEASSWKKQVSHDF [L11K] is 2.19; for ASSVQSTLPVLEASSWKKQVSHDF [E5Q] it is 2.51; for ASSVYSTLPVLEASSWKKQVSHDF [E5Y] it is 1.9.
As to ASSVVSTLPVLEASSWKKQVSHDF [E5V], the protein stability index came to 2.9.
Then ASSVWSTLPVLEASSWKKQVSHDF [E5W], with 2.03.
Then ASSVSSTLPVLEASSWKKQVSHDF [E5S], with 3.21; and ASSVEHTLPVLEASSWKKQVSHDF [S6H], with 2.42.
With ASSVEKTLPVLEASSWKKQVSHDF [S6K], the protein stability index worked out at 2.76.
ASSVEPTLPVLEASSWKKQVSHDF [S6P]: the protein stability index turned out to be 2.96.
The figure for ASSVECTLPVLEASSWKKQVSHDF [S6C] is 2.56.
The figure for ASSVEFTLPVLEASSWKKQVSHDF [S6F] is 1.76; for ASSVEITLPVLEASSWKKQVSHDF [S6I] it is 1.7; for ASSVETTLPVLEASSWKKQVSHDF [S6T] it is 3.06.
The figure for ASSVELTLPVLEASSWKKQVSHDF [S6L] is 3.18; for ASSVEYTLPVLEASSWKKQVSHDF [S6Y] it is 2.48; for ASSVEDTLPVLEASSWKKQVSHDF [S6D] it is 2.46.
Turning to ASSVERTLPVLEASSWKKQVSHDF [S6R], the protein stability index was found to be 2.43.
For the variant ASSVEWTLPVLEASSWKKQVSHDF [S6W], the protein stability index worked out at 3.02.
Then ASSVEMTLPVLEASSWKKQVSHDF [S6M], with 2.36; and ASSVENTLPVLEASSWKKQVSHDF [S6N], with 3.83.
In the case of ASSVEATLPVLEASSWKKQVSHDF [S6A], the protein stability index worked out at 3.41.
Then ASSVESTLCVLEASSWKKQVSHDF [P9C], with 3.55; and ASSVESTLKVLEASSWKKQVSHDF [P9K], with 2.5; and ASSVESTLSVLEASSWKKQVSHDF [P9S], with 2.28.
The figure for ASSVESTLEVLEASSWKKQVSHDF [P9E] is 1.96; for ASSVESTLDVLEASSWKKQVSHDF [P9D] it is 3.03.
Then ASSVESTLGVLEASSWKKQVSHDF [P9G], with 1.89; and ASSVESTLLVLEASSWKKQVSHDF [P9L], with 2.04.
